Experiments:
recombinant human IL-18 [1] = target: T1, recombinant human IL-18 (human, UniProt Q14116 37-193); assay: Luminex; mAb on IL-18 beads
T1 construct: Commercial recombinant human IL-18; In the Luminex screening it was attached to beads; also called Interleukin-18; human interleukin-18
T1 sequence (looked up): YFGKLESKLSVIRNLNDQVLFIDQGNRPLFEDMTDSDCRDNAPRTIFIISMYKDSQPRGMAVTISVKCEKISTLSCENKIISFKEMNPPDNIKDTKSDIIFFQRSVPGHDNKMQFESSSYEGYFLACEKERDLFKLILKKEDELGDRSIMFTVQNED

IL-18/IL-18BP complex [2] = target: T2, IL-18/IL-18BP complex (human, UniProt Q14116 37-193); assay: Luminex; mAb on IL-18 complexed to bead-linked IL-18BP
T2 construct: Complex of IL-18 with IL-18BP; in the third Luminex screening step IL-18BP was linked to the beads and then complexed to IL-18; Stoichiometry 1:1 is only cited from the literature; also called IL-18 previously complexed to IL-18BP; complex IL-18/IL-18BP
T2 sequence 1: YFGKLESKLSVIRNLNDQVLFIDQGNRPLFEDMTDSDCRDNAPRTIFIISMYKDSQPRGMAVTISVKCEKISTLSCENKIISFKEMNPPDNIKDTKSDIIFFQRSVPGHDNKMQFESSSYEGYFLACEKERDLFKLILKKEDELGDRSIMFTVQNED
T2 sequence 2: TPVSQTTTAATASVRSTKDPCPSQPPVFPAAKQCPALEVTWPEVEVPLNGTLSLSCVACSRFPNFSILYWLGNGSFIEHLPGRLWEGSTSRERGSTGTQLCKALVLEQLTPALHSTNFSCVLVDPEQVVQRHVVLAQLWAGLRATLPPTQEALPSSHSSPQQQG

recombinant human IL-18 [3] = target: T1, recombinant human IL-18; assay: Luminex; biotinylated IL-18BP (competitor) on IL-18 beads pre-bound with the mAb; the signal is IL-18BP binding
IL-18/IL-18BP complex [4] = target: T2, IL-18/IL-18BP complex; assay: Luminex third screening against first screening

B1: Antibody 111A6 (antibody, V domains shown)
VH: EVQLQQSGAELVKPGASVKLSCTASGFKIKDTYIHWVIQRPAQGLEWIGRIDPANGNTIYGSKFQGKATLTADTSSNTAYIHLSSLTSGDSAVYYCAGYVWFAYWGQGTLVTVSA
VL: DVVMTQVPLSLPVSLGDQASISCRSSQRLVHSNGNTYLHWFLQKPGQSPKLLIYTVSNRFSGVPDRFSGSGSGTDFTLKISRVEAEDLGVYFCSQSTLVPWTFGGGTKLEIK
Recombinant human IL-18 [1]
  Fluorescence intensity: 25900 fluorescence intensity
IL-18/IL-18BP complex [2]
  Fluorescence intensity: 42 fluorescence intensity
Recombinant human IL-18 [3]
  Fluorescence intensity (IL-18BP binding on IL-18 previously complexed to monoclonal antibody): 1400 fluorescence intensity

B2: Antibody 131E8 (antibody)
chain 1: QVQLKQSRPGPVQPSQSLSITCTVSGFSLPNYGVHWVRQPPGKGLEWLGVIWSGGSTDYNAAFKSRLSISKDNSKSQVFFKMNSLQADDTAIYYCARNFYSKYDYAMDYWGQGTSVTVSS
chain 2: QVQLQQPGSVLVRPGASVKLSCKASGYTFTSYWMHWVKQRPGQGLEWIGNINPNSGSTNYNEKFKGKATLTVDTSSSTAYMDLSSLTSEDSAVYYCARLGDYWGQGTTLTVSS
chain 3: ENVLTQSPAIMSASPGEKVTMTCSASSSVSYMHWYQQKSSTSPKLWIYDTSKLASGVPGRFSGSGSGNSYSLTISSMEAEDVATYYCFQGSGYPLTFGSGTKLEIK
Recombinant human IL-18 [1]
  Fluorescence intensity: 25400 fluorescence intensity
IL-18/IL-18BP complex [2]
  Fluorescence intensity: 36 fluorescence intensity
IL-18/IL-18BP complex [4]
  fold inhibition of binding to IL-18 complexed to IL-18BP against binding to IL-18 alone: > 500 fold
Recombinant human IL-18 [3]
  Fluorescence intensity (IL-18BP binding on IL-18 previously complexed to monoclonal antibody): 1390 fluorescence intensity
